From publication PMC8497999 (iScience, 2021) come the findings set out here.

Common to all, as to assay: SEC
Background: Size exclusion chromatography separates by hydrodynamic size, large species first.

The target of experiment [1] is T1, ACAD9-His6 R518H (human, UniProt Q9H845 38-621, R518H).
T1 sequence: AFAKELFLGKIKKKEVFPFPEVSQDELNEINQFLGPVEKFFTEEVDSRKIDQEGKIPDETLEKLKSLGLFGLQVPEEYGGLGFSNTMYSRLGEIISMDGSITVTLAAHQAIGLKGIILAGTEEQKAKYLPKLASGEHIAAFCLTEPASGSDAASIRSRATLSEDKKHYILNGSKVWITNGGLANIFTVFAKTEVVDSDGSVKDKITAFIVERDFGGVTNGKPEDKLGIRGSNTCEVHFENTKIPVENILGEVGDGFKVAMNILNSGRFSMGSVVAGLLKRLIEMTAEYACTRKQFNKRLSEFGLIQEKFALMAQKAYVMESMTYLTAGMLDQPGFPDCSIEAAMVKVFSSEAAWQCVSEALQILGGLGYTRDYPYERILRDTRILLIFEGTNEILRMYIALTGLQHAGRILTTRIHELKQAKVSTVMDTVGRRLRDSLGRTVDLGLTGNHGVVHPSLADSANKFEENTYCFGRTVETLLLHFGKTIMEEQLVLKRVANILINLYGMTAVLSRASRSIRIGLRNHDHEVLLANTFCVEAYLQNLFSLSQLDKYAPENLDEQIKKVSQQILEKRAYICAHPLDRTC

Experiment [2] deals with T2, ACAD9-His6 R532W (human, UniProt Q9H845 38-621, R532W).
T2 sequence: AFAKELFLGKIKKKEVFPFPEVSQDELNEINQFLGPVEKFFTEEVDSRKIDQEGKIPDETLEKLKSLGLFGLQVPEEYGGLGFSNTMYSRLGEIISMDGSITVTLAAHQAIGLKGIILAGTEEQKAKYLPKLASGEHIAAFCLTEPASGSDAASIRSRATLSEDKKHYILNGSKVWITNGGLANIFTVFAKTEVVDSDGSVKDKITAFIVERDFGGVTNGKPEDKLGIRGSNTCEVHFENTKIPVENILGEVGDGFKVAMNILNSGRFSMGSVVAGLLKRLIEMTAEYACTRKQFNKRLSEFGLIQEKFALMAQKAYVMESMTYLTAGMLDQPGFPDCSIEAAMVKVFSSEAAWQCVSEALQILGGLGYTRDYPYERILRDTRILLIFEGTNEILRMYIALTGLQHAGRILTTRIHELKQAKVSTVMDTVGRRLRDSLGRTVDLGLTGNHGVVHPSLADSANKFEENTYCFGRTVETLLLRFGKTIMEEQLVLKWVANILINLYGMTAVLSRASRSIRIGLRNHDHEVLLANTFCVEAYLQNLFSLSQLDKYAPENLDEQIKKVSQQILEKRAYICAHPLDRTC

For experiment [3], the target named is T3, ACAD9-His6 E426Q (human, UniProt Q9H845 38-621, E426Q).
T3 sequence: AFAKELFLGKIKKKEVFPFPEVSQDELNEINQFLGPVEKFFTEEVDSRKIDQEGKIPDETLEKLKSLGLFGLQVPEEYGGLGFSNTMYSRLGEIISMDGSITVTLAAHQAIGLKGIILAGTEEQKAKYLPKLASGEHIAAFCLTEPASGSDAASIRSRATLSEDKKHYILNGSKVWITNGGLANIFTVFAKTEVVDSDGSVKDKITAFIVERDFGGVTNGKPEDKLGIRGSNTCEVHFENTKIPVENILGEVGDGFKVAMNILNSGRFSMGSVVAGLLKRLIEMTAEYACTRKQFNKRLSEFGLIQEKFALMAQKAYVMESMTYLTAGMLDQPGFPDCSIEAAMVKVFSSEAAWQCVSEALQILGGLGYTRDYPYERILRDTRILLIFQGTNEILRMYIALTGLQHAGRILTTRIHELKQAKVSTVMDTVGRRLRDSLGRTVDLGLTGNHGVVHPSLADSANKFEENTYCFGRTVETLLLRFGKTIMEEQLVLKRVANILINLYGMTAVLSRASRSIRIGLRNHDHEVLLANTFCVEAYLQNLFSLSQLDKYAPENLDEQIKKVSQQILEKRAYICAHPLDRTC

In experiment [4] the target is T4, ACAD9 (non-tagged wild type) (human, UniProt Q9H845 38-621).
T4 sequence: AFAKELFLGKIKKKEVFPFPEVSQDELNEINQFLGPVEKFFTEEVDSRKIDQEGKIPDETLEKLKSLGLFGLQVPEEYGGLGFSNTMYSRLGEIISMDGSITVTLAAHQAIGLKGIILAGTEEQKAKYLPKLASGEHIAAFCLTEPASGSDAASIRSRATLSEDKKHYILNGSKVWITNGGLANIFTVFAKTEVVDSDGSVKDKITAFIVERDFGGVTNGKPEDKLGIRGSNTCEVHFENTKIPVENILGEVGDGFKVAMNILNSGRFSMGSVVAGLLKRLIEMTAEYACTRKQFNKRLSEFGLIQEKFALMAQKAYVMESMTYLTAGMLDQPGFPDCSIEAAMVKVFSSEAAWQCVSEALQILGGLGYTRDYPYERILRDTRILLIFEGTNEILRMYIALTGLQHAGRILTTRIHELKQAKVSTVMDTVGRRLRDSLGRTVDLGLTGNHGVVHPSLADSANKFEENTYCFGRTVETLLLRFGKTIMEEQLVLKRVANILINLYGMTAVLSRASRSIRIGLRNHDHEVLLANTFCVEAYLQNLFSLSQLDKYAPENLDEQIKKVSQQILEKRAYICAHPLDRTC

B1: His6-ECSIT (mature human mitochondrial ECSIT with N-terminal His tag) (natural protein)
chain: SSEQSLVPSPPEPRQRPTKALVPFEDLFGQAPGGERDKASFLQTVQKFAEHSVRKRGHIDFIYLALRKMREYGVERDLAVYNQLLNIFPKEVFRPRNIIQRIFVHYPRQQECGIAVLEQMENHGVMPNKETEFLLIQIFGRKSYPMLKLVRLKLWFPRFMNVNPFPVPRDLPQDPVELAMFGLRHMEPDLSARVTIYQVPLPKDSTGAADPPQPHIVGIQSPDQQAALARHNPARPVFVEGPFSLWLRNKCVYYHILRADLLPPEEREVEETPEEWNLYYPMQLDLEYVRSGWDNYEFDINEVEEGPVFAMCMAGAHDQATMAKWIQGLQETNPTLAQIPVVFRLAGSTRELQTSSAGLEEPPLPEDHQEEDDNLQRQQQGQS
Take B1: the binding result in experiment [1], in experiment [2] and in experiment [3] was “binds” throughout. The “stoichiometry N” value in experiment [4] is 1 monomer:monomer.
